# Laboratory results taken from PMC2109139.
# Target: subunit of the Mo-Fe protein from Azotobacter vinelandii nitrogenase (Azotobacter vinelandii (strain OP)) (UniProt P07328)
# Experiment: electron microscopy
substance,measurement,value
subunit of the Mo-Fe protein from Azotobacter vinelandii nitrogenase (from UniProt P07328 1-492) (natural protein),stoichiometry N,4
